These results are taken from article PMC6039492, “Oligomerization of a G protein-coupled receptor in neurons controlled by its structural dynamics” (Scientific Reports, 2018).

Several values for one entry are separate records, joined by “and”; a condition that tells them apart may be missing. Identical values can stand only once.

The stoichiometry N is a count of units in the complex or per binding partner.

Series [1] concerns the molecule itself. In words: two-photon scanning number and brightness (sN&B) fluctuation microscopy; live cultured rat hippocampal neurons, SNAP-tag labelled with Alexa488, with antagonist (400 nM LY341495) during labelling and imaging; numbers for 90-600 subunits/Veff.
Series [2] deals with the molecule itself. The series is described as follows: two-photon scanning number and brightness (sN&B) fluctuation microscopy; live cultured rat hippocampal neurons, SNAP-tag labelled with Alexa488, with agonist and PAM (10 nM LY379268 + 3 μM BINA) during labelling and imaging; numbers for 90-600 subunits/Veff.
Series [3] concerns the molecule itself. In words: two-photon scanning number and brightness (sN&B) fluctuation microscopy; live cultured rat hippocampal neurons, SNAP-tag labelled with Alexa488, incubated with 150 μM CuP, bound to antagonist (400 nM LY341495); 90-600 subunits/Veff; apparent stoichiometry (lower with CuP).
Series [4] concerns the molecule itself. The series is described as follows: two-photon scanning number and brightness (sN&B) fluctuation microscopy; live cultured rat hippocampal neurons, SNAP-tag labelled with Alexa488, incubated with 150 μM CuP for the last 10 min of labelling, imaged in the absence of ligand; 90-600 subunits/Veff; apparent stoichiometry (lower with CuP).
Series [5] deals with the molecule itself. In words: two-photon scanning number and brightness (sN&B) fluctuation microscopy; live cultured rat hippocampal neurons, cell-surface SNAP-tagged receptor labelled with Alexa488, imaging buffer pH 7.3, no ligand (basal); numbers for expression of 90-600 subunits/Veff; brightness normalised to monomeric Alexa488.

B1: metabotropic glutamate receptor type 2 (mGlu2), wild type, with a SNAP-tag fused to the extracellular N-terminus (HA-ST-mGlu2) (receptor, rat, UniProt P31421 19-872, looked up)
chain: EGPAKKVLTLEGDLVLGGLFPVHQKGGPAEECGPVNEHRGIQRLEAMLFALDRINRDPHLLPGVRLGAHILDSCSKDTHALEQALDFVRASLSRGADGSRHICPDGSYATHSDAPTAVTGVIGGSYSDVSIQVANLLRLFQIPQISYASTSAKLSDKSRYDYFARTVPPDFFQAKAMAEILRFFNWTYVSTVASEGDYGETGIEAFELEARARNICVATSEKVGRAMSRAAFEGVVRALLQKPSARVAVLFTRSEDARELLAATQRLNASFTWVASDGWGALESVVAGSERAAEGAITIELASYPISDFASYFQSLDPWNNSRNPWFREFWEERFHCSFRQRDCAAHSLRAVPFEQESKIMFVVNAVYAMAHALHNMHRALCPNTTHLCDAMRPVNGRRLYKDFVLNVKFDAPFRPADTDDEVRFDRFGDGIGRYNIFTYLRAGSGRYRYQKVGYWAEGLTLDTSFIPWASPSAGPLPASRCSEPCLQNEVKSVQPGEVCCWLCIPCQPYEYRLDEFTCADCGLGYWPNASLTGCFELPQEYIRWGDAWAVGPVTIACLGALATLFVLGVFVRHNATPVVKASGRELCYILLGGVFLCYCMTFVFIAKPSTAVCTLRRLGLGTAFSVCYSALLTKTNRIARIFGGAREGAQRPRFISPASQVAICLALISGQLLIVAAWLVVEAPGTGKETAPERREVVTLRCNHRDASMLGSLAYNVLLIALCTLYAFKTRKCPENFNEAKFIGFTMYTTCIIWLAFLPIFYVTSSDYRVQTTTMCVSVSLSGSVVLGCLFAPKLHIILFQPQKNVVSHRAPTSRFGSAAPRASANLGQGSGSQFVPTVCNGREVVDSTTSSL
modifications: Alexa488 (BG-Alexa488) covalently on the SNAP-tag
notes: metabotropic glutamate receptor 2 (mGlu2), rat, wild type; HA-tag and SNAP-tag inserted just after the signal peptide; pRK5 plasmid, CMV promoter exchanged for the synapsin-1 promoter; also called mGlu2 receptor; wild type receptor; source: cultured rat hippocampal neurons, transfected (Lipofectamine 2000), on live cells; not shown: SNAP-tag, N-terminal, kept
Consider B1, for which the “stoichiometry N” value in series [1] is 3.7 subunits/complex; in series [2], 4 subunits/complex; in series [3], 3 subunits/complex; in series [4], 1.7 subunits/complex; in series [5], 2.2 subunits per complex and 1.66 subunits/complex.
